Data: PMC8591454 (Frontiers in Microbiology, 2021)

Target: T1, truncated capsid protein sar239 from genotype 1 HEV Sar55 strain (hepatitis E virus genotype 1, strain …, UniProt P33426 368-606)
T1 sequence: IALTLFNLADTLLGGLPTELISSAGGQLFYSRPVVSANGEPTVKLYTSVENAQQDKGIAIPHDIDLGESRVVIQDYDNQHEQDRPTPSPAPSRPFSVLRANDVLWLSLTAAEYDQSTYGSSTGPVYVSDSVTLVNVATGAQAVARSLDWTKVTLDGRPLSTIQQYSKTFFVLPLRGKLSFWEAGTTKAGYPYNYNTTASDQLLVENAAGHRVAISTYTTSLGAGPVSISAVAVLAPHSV
Test: ELISA
Details: both partners purified

B1: His-tagged cell division control protein 42 (CDC42-His) (natural protein)
chain: not shown
notes: also called recombinant CDC42-His protein
B1: binds.
